In patent US8236761B2, “C-Met receptor regulation by angiotensin IV (AT4) receptor ligands” (Washington State University Research Foundation, priority 2006, dated 2012):
Non-standard residues stand in square brackets, D forms with d. No end group written: not given here. Nle = CCCC[C@H](N)C(=O)O

Key:
[1] = system: aortic ring angiogenic sprouts; test: Ex vivo mouse aortic ring angiogenesis assay; conditions: 100 pM Norleual, four days, EGM-2
Protocol: FIG. 16 depicts inhibition of angiogenesis by Norleual (Compound 2, SEQ ID NO:43) in the mouse aortic ring assay. Rings were incubated in EGM-2 media (Cambrex) with (n=8) or without (n=6) 100 pM Norleual for four days. Digital photos of the rings were taken on day four. FIG. 16A: Quantification of aortic ring angiogenesis. Areas covered by angiogenic sprouts were quantified from day four ring photos, control (−) and Norelual treated (+) (p-value=0.012* and error bars indicate ±SEM). FIG. 16B: HUVECs were treated for 5 minutes with HGF and/or Norleual at indicated concentrations. Lysates were IP with anti-c-Met and IB with anti-c-Met or Gab1.
Aortic ring assay. 48-well plates were coated with Growth Factor Reduced Matrigel (BD Biosciences, San Jose, Calif., USA, thick gel method). Under microscopic dissection, the thoracic aorta of a 6 week-old C57 mouse was cut into 0.5 mm sections, washed in PBS, and placed in the Matrigel-coated wells. […] Photos were taken and angiogenic area was measured using Image J (Image Processing and Data Analysis in Java, available from NIH, Bethesda, Md.). […]
See Example 1 for Materials and Methods. Angiogenesis was evaluated with the ex vivo mouse aortic ring assay in the presence and absence of Norleual. […]

B16-F0 murine melanoma = test: Primary tumor melanoma cancer model; format: in vivo, C57BL/6 mice; conditions: male C57 mice, Elvax pellet intramuscular, 21 μg/kg/day
[2] = system: +SA murine mammary cancer cells; test: Angiogenesis-related gene microarray of +SA murine mammary tumors; format: in vivo, Balb/c mice; conditions: 28 days intraperitoneal osmotic pump, 1 mg/kg/day
Protocol: Angiotensin-like factor Norleual (COMPOUND 2) was tested for its ability to modulate angiogenic genes in murine mammary tumors. Briefly, Balb/c mice grafted with +SA murine mammary cancer cells were treated with Compound 2. After 28 days of intraperitoneal administration via an osmotic pump (at a dose of 1 mg/kg/day), primary tumors were harvested and RNA was collected. Transcriptional activities of 96 angiogenesis-related genes were assessed using gene microarrays.

c-Met [3] = molecular target: T1, c-Met (Homo sapiens, UniProt P08581); test: Immunoprecipitation/Western blot of HGF-dependent c-Met and Gab1 phosphorylation and association in HEK293 cells; format: cell-based; design: host or cells: HEK293
Protocol: (FIG. 5A) HEK293 cells were treated for 10 minutes with HGF at indicated concentrations. Lysates were immunoprecipitated (IP) with anti-c-Met antibody (DO-24) and immunoblotted (IB) with anti-c-Met or anti-phospho-tyrosine (06-427) antibody. (FIG. 5B) HEK293 cells were treated for 10 minutes with HGF and/or Norleual. Lysates were IP with anti-c-Met (DO-24) and IB with anti-c-Met (DQ-13) or anti-phospho-tyrosine (HAM 1676). (FIG. 5C) HEK293 lysates were IP with anti-c-Met (DO-24) and IB with anti-Gab1. (FIG. 5D) HEK 293 lysates were IP with anti-Gab1 and IB with anti-Gab1 or anti-phospho-tyrosine (HAM 1676). (FIGS. 5E, 5F, 5G) Relative amounts (normalized to % total c-Met in IP) of quantified IP/IB band intensities for control, 110 pM HGF-, 110 pM HGF and 20 pM Norleual-, and 20 pM Norleual-treated HEK293 cells for phospho-c-Met (FIG. 5E, n=4), phospho-Gab1 (FIG. 5F, n=4), and c-Met associated Gab1 (FIG. 5G, n=3). Error bars indicate ±SD.
HEK293 cells were treated for 10 minutes with HGF and/or Norleual at the indicated concentrations. Lysates were IP with anti-c-Met (DO-24, Millipore/Upstate, Billerica, Mass.) and IB with anti-c-Met (DQ-13, Millipore/Upstate) or anti-phosphotyrosine (HAM1676, lot JLB03, R&D Systems, Inc., Minneapolis, Minn.).
Immunoprecipitation and Western blotting. Cells were serum starved for two hours in DMEM before treatment. Cells were harvested using RIPA lysis buffer (Upstate Biotechnol. Inc., Lake Placid, N.Y.) with phosphatase inhibitor cocktails 1 and 2 (Sigma, St Louis, Mo., USA). Protein concentration was determined using the BCA assay (Pierce, Rockford, Ill., USA). Lysates were incubated with antibody overnight at 4° C. Immunoprecipitation controls received mouse non-specific Ig (Upstate). Proteins were captured with protein-A agarose (Upstate) and were washed with PBS. Proteins were resolved using SDS-PAGE electrophoresis (Criterion, BioRad, Hercules, Calif., USA), transferred to nitrocellulose, and incubated with appropriate antibodies. Proteins were visualized using the Supersignal West Pico Chemiluminescent Substrate system (Pierce). The film images were digitized and analyzed using TotalLab® software (AmershamPharmacia/GE HealthCare, Piscataway, N.J.).
Whether the interaction of Norleual with the c-Met receptor had functional consequences regarding c-Met signaling was next investigated by determining whether Norleual could alter the phosphorylation status of cellular protein tyrosine phosphate (FIG. 4) and more specifically, of c-Met (i.e., c-Met activation), and also whether Norleual could modulate Gab1 association with c-Met. Human embryonic kidney HEK293 cells were activated by HGF in the presence or absence of Norleual. Solubilized membranes were immunoprecipitated (IP) with an anti-c-Met antibody and immunoblotted (IB) for total c-Met, anti-phospho-tyrosine to detect the activated form of c-Met, and anti-Gab1 to detect c-Met/Gab1 association. […] To confirm these findings, treated HEK293 lysates were precipitated with anti-Gab1 and blotted for total Gab1 and phospho-Gab1, its activated form. Again, Norleual inhibited HGF-induced Gab1 phosphorylation (FIGS. 5D, […]).
Target sequence in this assay (P08581 308-1390 limits assumed): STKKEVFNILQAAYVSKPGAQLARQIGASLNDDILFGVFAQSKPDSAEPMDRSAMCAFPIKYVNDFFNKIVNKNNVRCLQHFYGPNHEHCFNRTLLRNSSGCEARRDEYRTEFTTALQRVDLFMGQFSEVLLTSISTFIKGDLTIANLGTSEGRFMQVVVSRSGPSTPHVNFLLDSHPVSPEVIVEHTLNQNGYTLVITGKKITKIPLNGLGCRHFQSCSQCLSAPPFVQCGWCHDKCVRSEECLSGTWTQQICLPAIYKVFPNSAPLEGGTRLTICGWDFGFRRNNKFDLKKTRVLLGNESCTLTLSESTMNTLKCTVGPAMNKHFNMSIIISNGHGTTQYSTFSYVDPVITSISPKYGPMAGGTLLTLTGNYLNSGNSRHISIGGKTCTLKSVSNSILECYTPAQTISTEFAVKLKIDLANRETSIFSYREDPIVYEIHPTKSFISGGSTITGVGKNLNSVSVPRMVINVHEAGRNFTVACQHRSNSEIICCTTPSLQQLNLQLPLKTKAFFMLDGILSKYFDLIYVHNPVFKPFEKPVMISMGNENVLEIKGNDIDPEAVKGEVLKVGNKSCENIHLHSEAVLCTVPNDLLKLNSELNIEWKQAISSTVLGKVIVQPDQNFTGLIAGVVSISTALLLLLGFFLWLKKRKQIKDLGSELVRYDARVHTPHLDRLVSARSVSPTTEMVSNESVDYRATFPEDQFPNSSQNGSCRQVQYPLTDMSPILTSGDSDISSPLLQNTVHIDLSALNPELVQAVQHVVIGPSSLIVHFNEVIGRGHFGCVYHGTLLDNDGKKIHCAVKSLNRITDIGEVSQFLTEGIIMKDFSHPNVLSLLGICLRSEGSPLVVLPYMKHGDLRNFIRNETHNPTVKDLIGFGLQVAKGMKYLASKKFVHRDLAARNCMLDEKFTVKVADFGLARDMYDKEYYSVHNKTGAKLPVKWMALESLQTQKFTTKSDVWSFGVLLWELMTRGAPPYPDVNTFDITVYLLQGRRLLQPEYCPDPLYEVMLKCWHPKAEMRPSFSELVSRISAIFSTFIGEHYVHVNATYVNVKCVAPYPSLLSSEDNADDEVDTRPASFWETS
Target sequence in this assay (P08581 25-307 limits assumed): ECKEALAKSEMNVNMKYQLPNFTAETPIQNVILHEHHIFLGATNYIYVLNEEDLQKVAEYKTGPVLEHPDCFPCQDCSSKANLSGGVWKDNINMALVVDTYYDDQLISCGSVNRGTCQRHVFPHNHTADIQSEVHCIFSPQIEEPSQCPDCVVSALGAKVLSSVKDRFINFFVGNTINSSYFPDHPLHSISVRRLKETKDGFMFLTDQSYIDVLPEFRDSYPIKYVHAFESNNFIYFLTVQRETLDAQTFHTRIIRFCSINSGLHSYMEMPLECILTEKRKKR

c-Met [4] = molecular target: T1, c-Met; test: Tyrosine kinase receptor protein array in HUVECs; format: cell-based; design: endogenous in cells; host or cells: HUVEC; conditions: HUVECs treated for 5 minutes
Protocol: Screening of a ligand for its ability to inhibit c-Met receptor phosphorylation was tested by tyrosine kinase receptor protein array. Briefly, human umbilical vein endothelial cells (HUVECs) grown to confluence were treated for 5 minutes with COMPOUND 2 (SEQ ID NO:43). Cells were then lysed and total protein collected.
Target sequence in this assay (P08581 25-1390): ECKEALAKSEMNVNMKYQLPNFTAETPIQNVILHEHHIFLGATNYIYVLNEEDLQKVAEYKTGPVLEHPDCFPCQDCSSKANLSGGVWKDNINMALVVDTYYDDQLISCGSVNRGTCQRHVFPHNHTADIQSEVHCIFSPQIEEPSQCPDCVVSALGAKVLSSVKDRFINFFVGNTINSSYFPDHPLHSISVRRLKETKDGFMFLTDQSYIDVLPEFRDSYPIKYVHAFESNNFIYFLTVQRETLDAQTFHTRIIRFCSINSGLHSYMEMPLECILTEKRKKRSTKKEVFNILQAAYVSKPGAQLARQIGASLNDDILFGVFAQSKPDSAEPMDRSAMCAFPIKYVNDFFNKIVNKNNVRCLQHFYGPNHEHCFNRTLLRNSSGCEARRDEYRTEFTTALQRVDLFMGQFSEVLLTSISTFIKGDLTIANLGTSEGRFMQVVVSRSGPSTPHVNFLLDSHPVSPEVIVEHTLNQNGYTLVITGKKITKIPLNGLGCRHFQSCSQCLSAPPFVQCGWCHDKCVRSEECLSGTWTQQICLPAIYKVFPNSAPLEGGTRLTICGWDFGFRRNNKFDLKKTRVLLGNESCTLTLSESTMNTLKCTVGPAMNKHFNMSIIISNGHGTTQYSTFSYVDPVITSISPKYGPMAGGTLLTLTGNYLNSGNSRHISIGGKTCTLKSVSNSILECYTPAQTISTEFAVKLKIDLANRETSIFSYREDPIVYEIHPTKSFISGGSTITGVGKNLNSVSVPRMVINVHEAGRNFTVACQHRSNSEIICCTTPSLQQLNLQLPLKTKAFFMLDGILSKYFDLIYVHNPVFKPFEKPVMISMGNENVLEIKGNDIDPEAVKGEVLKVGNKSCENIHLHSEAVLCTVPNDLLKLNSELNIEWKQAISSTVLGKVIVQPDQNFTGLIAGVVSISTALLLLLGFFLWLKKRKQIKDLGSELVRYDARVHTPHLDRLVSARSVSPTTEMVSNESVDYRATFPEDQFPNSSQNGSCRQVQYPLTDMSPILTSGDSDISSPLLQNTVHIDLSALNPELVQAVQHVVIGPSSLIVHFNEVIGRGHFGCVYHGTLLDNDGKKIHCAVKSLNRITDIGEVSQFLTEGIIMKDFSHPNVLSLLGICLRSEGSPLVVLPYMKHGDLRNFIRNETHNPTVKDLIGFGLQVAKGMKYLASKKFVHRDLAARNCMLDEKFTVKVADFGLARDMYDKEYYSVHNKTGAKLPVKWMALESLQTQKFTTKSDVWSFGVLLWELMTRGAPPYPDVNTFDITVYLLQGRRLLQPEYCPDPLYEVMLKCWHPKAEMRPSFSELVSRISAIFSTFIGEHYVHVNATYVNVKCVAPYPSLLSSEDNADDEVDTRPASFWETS

HGF-initiated association between Gab1 and c-Met (c-Met [3]; HEK293 cells): significantly reduced
c-Met phosphorylation, compound applied alone (c-Met [3]; HEK293 cells, 10 minutes, no HGF): did not alter
HGF-dependent Gab1 phosphorylation (IP anti-c-Met) (c-Met [3]; HEK293 cells, Norleual 20 pM, 110 pM HGF): significantly reduced
HGF-dependent c-Met phosphorylation (c-Met [3]; HEK293 cells, Norleual 20 pM, 110 pM HGF, 10 minutes): significantly reduced
HGF-induced Gab1 phosphorylation (IP anti-Gab1) (c-Met [3]; HEK293 lysates precipitated with anti-Gab1): inhibited
c-Met phosphorylation in receptor protein array (c-Met [4]): inhibited
Substance: Nle-Tyr-Leu-ψ-His-Pro-Phe ([Nle]YLHPF; also: reduced peptide bond psi(CH2NH2) between Leu and His) [Norleual]
Angiogenic growth of aortic rings [1]: significantly attenuated
Primary B16-F0 murine melanoma growth (B16-F0 murine melanoma): inhibited
Change in gene expression versus control: Adamts 1, CD36, Connective tissue growth factor, PECAM 1, Cxcl 4, restin, Ccl 2, TNF-α, VEGF-α, VEGF-β [2]: at least five-fold
